Here are results for 3 molecules from patent US20220324970A1 (Janssen / Centocor, published 2022).

In assay [1] the target is T1, human pIgR extracellular domain (ECD) (human, UniProt P01833 19-638).
T1 construct: also called hpIgR ECD
The experiment in a line: ECL (MSD), hpIgR-ECD coated, anti-Fc detection.
Procedure: (§1) To check whether VHH recognizes a buried epitope on pIgR, EC₅₀ values were measured for VHH-mono-Fc molecules binding to hpIgR-ECD protein by electrochemiluminescence using two different detection antibodies, an anti-Fc antibody and an anti-VHH antibody. pIgR ECD (10 μg/ml in PBS) was coated on high-bind MSD plates for 2 hours at RT with 1000 rpm, incubated with blocking buffer for 1 hour at RT, incubated with VHH-mono-Fc molecules (increasing concentrations in PBS) for 2 hours at RT with 1000 rpm, washed 3× with PBT, incubated with ruthenylated secondary antibody (2 μg/ml in PBS) for 1 hour at RT with 1000 rpm, washed 3× with PBT and read plates in 40 ul reading buffer using the MSD imager. EC50 was calculated by fitting log VHH concentration versus log ECLU in Prism (Graphpad). The increase in EC₅₀ (>50-fold) due to anti-VHH detection was used as a measure to determine whether VHH recognized buried epitope on pIgR.

For assay [2], the target named is T1, human pIgR extracellular domain (ECD). Nature of the assay: BLI; summary table, repeats Table 1. (In BLI a coated tip is dipped into the sample, and binding shifts an interference pattern.)
The target of assay [3] is T2, human pIgR extracellular domain 4-domain 5 (D4-D5) (human, UniProt P01833 350-565).
T2 construct: HIS-tagged construct made in HEK293 cells; also called hpIgR domains 4-5
T2 chain: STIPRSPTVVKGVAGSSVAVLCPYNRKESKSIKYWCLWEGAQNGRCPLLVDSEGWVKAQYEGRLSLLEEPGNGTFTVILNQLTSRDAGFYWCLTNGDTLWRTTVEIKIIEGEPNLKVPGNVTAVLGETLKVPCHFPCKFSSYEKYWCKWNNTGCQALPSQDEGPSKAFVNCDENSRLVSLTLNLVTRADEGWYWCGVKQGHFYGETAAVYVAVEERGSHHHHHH
The experiment in a line: BLI (Octet RED384), 1:1 fit, 25 C, PBS; column kdis.

Assay [4] concerns the target T1, human pIgR extracellular domain (ECD). The assay is described as above.
For assay [5] the target is unchanged. Nature of the assay: ECL (MSD), anti-VHH detection against anti-Fc detection.
Procedure: as §1
Assay [6] has the same target. Nature of the assay: ECL (MSD), hpIgR-ECD coated, anti-VHH detection.
Assay [7] deals with T3, human pIgR, full-length, on cells (human, UniProt P01833 19-764).
T3 construct: whole, on cells; Used for the flow cytometry EC50 values (MDCK-hpIgR) and for the transcytosis read-outs; also called hpIgR; cell-surface hpIgR
Nature of the assay: flow cytometry on MDCK-hpIgR cells; summary table, repeats Table 1. On the technique in general: A flow cytometer gives signals particle by particle.
Procedure: (§2) Flow Cytometry was performed as follows. To test whether VHH-mono-Fc molecules recognize cell-surface hpIgR, Madin-Darby canine kidney (MDCK) cells engineered to express full-length hpIgR were used. Cells were cultured in Dulbecco's modified Eagle's medium containing 10% fetal calf serum at 37° C. with 5% CO₂. Cells were split into equal fractions (≈70,000 cells) and incubated with increasing concentrations of VHH-mono-Fc molecules for 30 min at 4 C. […] Cells were washed twice with cold staining buffer, resuspended in running buffer and analyzed with an iQue Screener (IntelliCyt Corporation). Binding was assessed by RL1 (A647) Geomeans from the live cell population and EC50 was calculated by fitting log VHH concentration versus MFI in Prism (Graphpad).

In assay [8] the target is T3, human pIgR, full-length, on cells. The experiment in a line: flow cytometry on MDCK-hpIgR cells.
Procedure: as §2
Assay [9] deals with T2, human pIgR extracellular domain …. Nature of the assay: BLI (Octet RED384), 1:1 fit, 25 C, PBS.
Assay [10] addresses T1, human pIgR extracellular domain (ECD). The experiment in a line: BLI (Octet RED384), 1:1 fit, 25 C, PBS.
Assay [11] has the same target. Nature of the assay: BLI (Octet), VHH-mono-Fc and hpIgR ectodomain.
For assay [12], the target named is T3, human pIgR, full-length, on cells. Nature of the assay: flow cytometry on MDCK-hpIgR cells; summary table, repeats Table 1. This is another data set of the same source.
Assay [13] concerns the target T1, human pIgR extracellular domain (ECD). The experiment in a line: BLI; summary table, repeats Table 1. The source holds these as a separate data set.
For assay [14], the target named is T3, human pIgR, full-length, on cells. Nature of the assay: cell-based or functional assay.
In assay [15] the target is T4, human pIgR extracellular domain 5 (D5) (human, UniProt P01833 460-565).
T4 construct: HIS-tagged construct made in HEK293 cells; also called hpIgR domain 5
Nature of the assay: ECL (MSD) heat map, HIS-tagged construct captured via anti-HIS, anti-human-Fc detection.

The next assay addresses T5, hpIgR_D2-D3.
T5 construct: HIS-tagged construct from HEK293 cells; also called human pIgR extracellular domain 2-domain 3 (D2-D3); hD2-D3
T5 HIS-tagged domain construct: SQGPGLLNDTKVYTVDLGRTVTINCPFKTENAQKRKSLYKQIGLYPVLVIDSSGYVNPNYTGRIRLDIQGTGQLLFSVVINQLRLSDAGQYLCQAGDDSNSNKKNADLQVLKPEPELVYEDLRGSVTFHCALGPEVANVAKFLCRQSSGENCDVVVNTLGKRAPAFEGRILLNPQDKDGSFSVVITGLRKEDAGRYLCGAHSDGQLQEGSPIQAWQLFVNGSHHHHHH
The description is as above.

For assay [16], the target named is T3, human pIgR, full-length, on cells. The experiment in a line: cell-based or functional assay. This is another data set of the same source.
In the next assay the target is T6, hpIgR_D3.
T6 construct: HIS-tagged construct from HEK293 cells; also called human pIgR extracellular domain 3 (D3); hD3
T6 HIS-tagged domain construct: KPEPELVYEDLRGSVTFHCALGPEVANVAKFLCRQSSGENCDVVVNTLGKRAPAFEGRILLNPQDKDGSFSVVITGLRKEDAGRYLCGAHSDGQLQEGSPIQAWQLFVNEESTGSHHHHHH
The experiment in a line: ECL (MSD) heat map, HIS-tagged construct captured via anti-HIS, anti-human-Fc detection.

Assay [17] deals with T7, human pIgR extracellular domain 2 (D2) (human, UniProt P01833 128-242).
T7 construct: HIS-tagged construct made in HEK293 cells; also called hpIgR domain 2
Described as above.
Procedure: (§3) A meso-scale discovery (MSD) platform was used for conducting epitope mapping and epitope burial studies. To test the binding of VHH-mono-Fc molecules to purified pIgR protein constructs, Streptavidin MSD plates were coated with a biotinylated anti-HIS antibody (2 μg/ml in PBS) for 1 hour at RT with 1000 rpm, washed 3× with PBT (PBS+0.1% Tween-20), incubated with blocking buffer for 1 hour at RT, incubated with His-tagged pIgR proteins (10 μg/ml in PBS) for 2 hours at RT with 1000 rpm, washed 3× with PBT, incubated with VHH-mono-Fc molecules (100 μg/ml in PBS) for 2 hours at RT with 1000 rpm, washed 3× with PBT, incubated with ruthenylated-anti-human-Fc antibody (2 μg/ml in PBS) for 1 hour at RT with 1000 rpm, washed 3× with PBT and read plates in 40 ul reading buffer using the MSD imager. ECLU values were plotted as a heatmap.
(§4) Binding of VHH-mFc molecules were tested to immobilized pIgR constructs by the electrochemiluminescence method.

For assay [18], the target named is T3, human pIgR, full-length, on cells. The experiment in a line: cell-based or functional assay. This is another data set of the same source.
Assay [19] has as its target T8, human pIgR extracellular domain 1-domain 2 (D1-D2) (human, UniProt P01833 19-240).
T8 construct: HIS-tagged construct made in HEK293 cells
The experiment in a line: ECL (MSD) heat map, HIS-tagged construct captured via anti-HIS, anti-human-Fc detection.

Assay [20] addresses T9, human pIgR extracellular domain 1 (D1) (human, UniProt P01833 19-127).
T9 construct: HIS-tagged construct made in HEK293 cells; also called hpIgR domain-1
The description is as above.
Procedure: as §3, §4

In assay [21] the target is T2, human pIgR extracellular domain …. Nature of the assay: ECL (MSD) heat map in ECLU: HIS-tagged construct captured via anti-HIS, VHH-mono-Fc 100 ug/ml, anti-human-Fc detection.
Procedure: The Electrochemiluminescence assay was performed as follows. A meso-scale discovery (MSD) platform was used for conducting epitope mapping and epitope burial studies. To test the binding of VHH-mono-Fc molecules to purified pIgR protein constructs, Streptavidin MSD plates were coated with a biotinylated anti-HIS antibody (2 μg/ml in PBS) for 1 hour at RT with 1000 rpm, washed 3× with PBT (PBS+0.1% Tween-20), incubated with blocking buffer for 1 hour at RT, incubated with His-tagged pIgR proteins (10 μg/ml in PBS) for 2 hours at RT with 1000 rpm, washed 3× with PBT, incubated with VHH-mono-Fc molecules (100 μg/ml in PBS) for 2 hours at RT with 1000 rpm, washed 3× with PBT, incubated with ruthenylated-anti-human-Fc antibody (2 μg/ml in PBS) for 1 hour at RT with 1000 rpm, washed 3× with PBT and read plates in 40 ul reading buffer using the MSD imager. ECLU values were plotted as a heatmap.
In assay [22] the target is T4, human pIgR extracellular domain 5 (D5). The experiment in a line: ECL (MSD) heat map, HIS-tagged construct captured via anti-HIS, anti-human-Fc detection. The source holds these as a separate data set.
Procedure: as §3, §4

Like-named read-outs stand apart in the source and are kept apart here. Where only a bound is given, the exact number is not on record here.

T3 sequence (P01833 19-764): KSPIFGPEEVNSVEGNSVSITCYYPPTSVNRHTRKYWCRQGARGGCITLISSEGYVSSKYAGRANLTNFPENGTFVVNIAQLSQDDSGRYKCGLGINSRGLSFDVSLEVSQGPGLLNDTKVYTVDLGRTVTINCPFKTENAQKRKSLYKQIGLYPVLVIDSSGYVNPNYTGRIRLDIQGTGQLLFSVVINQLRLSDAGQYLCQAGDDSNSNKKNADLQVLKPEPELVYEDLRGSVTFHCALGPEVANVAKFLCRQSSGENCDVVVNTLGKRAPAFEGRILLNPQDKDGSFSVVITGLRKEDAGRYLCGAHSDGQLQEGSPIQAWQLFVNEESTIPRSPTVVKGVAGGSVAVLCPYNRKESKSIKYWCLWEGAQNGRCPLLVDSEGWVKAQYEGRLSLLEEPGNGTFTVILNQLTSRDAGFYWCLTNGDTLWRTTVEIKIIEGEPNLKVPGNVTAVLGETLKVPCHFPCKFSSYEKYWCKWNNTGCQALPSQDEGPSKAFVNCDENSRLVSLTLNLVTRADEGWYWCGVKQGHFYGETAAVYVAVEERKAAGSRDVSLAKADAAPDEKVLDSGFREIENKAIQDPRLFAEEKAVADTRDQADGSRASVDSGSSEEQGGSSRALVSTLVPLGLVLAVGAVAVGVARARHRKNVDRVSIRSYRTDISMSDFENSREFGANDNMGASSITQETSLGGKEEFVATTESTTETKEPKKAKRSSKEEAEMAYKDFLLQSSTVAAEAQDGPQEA
T1 sequence (P01833 other isoform, or with tags, fused parts or gaps): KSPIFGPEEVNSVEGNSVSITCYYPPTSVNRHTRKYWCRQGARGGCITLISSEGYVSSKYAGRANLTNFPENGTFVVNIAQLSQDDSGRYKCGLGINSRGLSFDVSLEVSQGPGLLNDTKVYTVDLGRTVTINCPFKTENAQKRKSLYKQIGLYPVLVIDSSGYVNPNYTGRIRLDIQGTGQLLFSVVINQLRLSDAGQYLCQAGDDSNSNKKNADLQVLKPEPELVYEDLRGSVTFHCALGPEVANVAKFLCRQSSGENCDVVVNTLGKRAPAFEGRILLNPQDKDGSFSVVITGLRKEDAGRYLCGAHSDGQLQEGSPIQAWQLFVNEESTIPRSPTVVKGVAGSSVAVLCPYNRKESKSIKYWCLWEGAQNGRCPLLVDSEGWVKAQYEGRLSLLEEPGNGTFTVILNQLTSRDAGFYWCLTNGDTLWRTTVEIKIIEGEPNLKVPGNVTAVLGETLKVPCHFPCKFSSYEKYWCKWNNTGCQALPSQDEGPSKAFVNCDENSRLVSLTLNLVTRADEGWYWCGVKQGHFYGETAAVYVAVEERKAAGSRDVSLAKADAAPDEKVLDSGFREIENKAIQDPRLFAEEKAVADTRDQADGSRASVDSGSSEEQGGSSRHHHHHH
T9 sequence (P01833 other isoform, or with tags, fused parts or gaps limits assumed): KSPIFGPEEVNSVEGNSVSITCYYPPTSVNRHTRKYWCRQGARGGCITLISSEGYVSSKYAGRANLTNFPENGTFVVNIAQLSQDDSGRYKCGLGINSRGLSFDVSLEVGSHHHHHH
T8 sequence (P01833 other isoform, or with tags, fused parts or gaps limits assumed): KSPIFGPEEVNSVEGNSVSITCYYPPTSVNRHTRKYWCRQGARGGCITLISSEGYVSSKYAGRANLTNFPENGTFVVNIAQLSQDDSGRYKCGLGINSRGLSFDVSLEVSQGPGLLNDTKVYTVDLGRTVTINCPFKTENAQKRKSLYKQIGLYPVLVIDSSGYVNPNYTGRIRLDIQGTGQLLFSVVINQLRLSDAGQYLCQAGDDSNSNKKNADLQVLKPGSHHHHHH
Procedure for hpIgR_D3: as §3, §4

B1: VHH10-linker-mono-Fc protein (Fc fusion)
chain: EVQVVESGGGLVQAGGSLRLSCAASGFTFTRYAMGWFRQAPGKERSFVAAISWSGSSAGYGDSVKGRFTISRDNAKNTLYLQMNSLKPEDTAVYYCAADPFNQGYWGQGTQVTVSSEPKTPKPQPQPQLQPQPNPTTESKSPKSPAPELLGGPSVFLFPPKPKDTLMISRTPEVTCVVVDVSHEDPEVKFNWYVDGVEVHNAKTKPREEQYNSTYRVVSVLTVLHQDWLNGKEYKCKVSNKALPAPIEKTISKAKGQPREPQVYTKPPSREEMTKNQVSLSCLVKGFYPSDIAVEWESNGQPENNYKTTVPVLDSDGSFRLASYLTVDKSRWQQGNVFSCSVMHEALHNHYTQKSLSLSPGK
notes: made in CHO cells; also called VHH10-mono-Fc; hpIgR_225
Usually EC50 stands for the midpoint of the concentration-response curve. A word on the Kd: it is a measure of binding affinity in units of concentration. Broadly, the koff is the rate constant with which the complex falls apart. Low readings indicate a long-lived complex, high ones a short-lived complex. As a reminder, the kon is the rate constant with which the complex forms. Regarding B1, the EC50 in assay [1] turned out to be 17.6 nM; in assay [6], 43.9 nM; in [7] it was 20.4 nM; in assay [8], 20.4 nM; in assay [12], 20.4 nM. Also, the dissociation constant Kd worked out at 256 nM in [2]; 115 nM in assay [9]; 256 nM in assay [10]; 256 nM in assay [11]; 256 nM in assay [13]. For the same molecule, the values for the koff in assay [3] and in assay [4] were 0.00188 s⁻¹ and 0.00513 s⁻¹, respectively. The “Fold change in EC50” value in assay [5] was found to be 2.5 fold. Also, the kon in [9] was found to be 16300 M⁻¹ s⁻¹; in assay [10], 20000 M⁻¹ s⁻¹. In assay [14], the “Transcytosis (Fold Incr.)” value worked out at 5 fold. The binding result (in assay [15]; with hpIgR_D2-D3; with hpIgR_D3; in assay [17]) was “no binding (tested: 100 ug/ml (single concentration))” each time. For the same molecule, the “For. Trans. (Fold Incr.)” value in [16] is 1.3 fold. Moreover, the “Rev. Trans (Fold Incr.)” value in assay [16] came out at 3.4 fold.

B2: VHH11-linker-mono-Fc protein (Fc fusion)
chain: EVQVVESGGGLVQAGGSLRLSCAASGRTFTTYRMGWFRQAPGKEREFVAAIRWSGGRTLYADSVKGRFTISRDNAKNTAYLQMNNLRPEDTAVYYCAADLAEYSGTYSSPADSPAGYDYWGQGTQVTVSSEPKTPKPQPQPQLQPQPNPTTESKSPKSPAPELLGGPSVFLFPPKPKDTLMISRTPEVTCVVVDVSHEDPEVKFNWYVDGVEVHNAKTKPREEQYNSTYRVVSVLTVLHQDWLNGKEYKCKVSNKALPAPIEKTISKAKGQPREPQVYTKPPSREEMTKNQVSLSCLVKGFYPSDIAVEWESNGQPENNYKTTVPVLDSDGSFRLASYLTVDKSRWQQGNVFSCSVMHEALHNHYTQKSLSLSPGK
notes: made in CHO cells; also called VHH11-mono-Fc; hpIgR_250
B2: the EC50 in assay [1] was 0.3 nM; in [6], 0.8 nM; in assay [7], 1.5 nM; in assay [8], 1.5 nM; in assay [12], 1.5 nM. Also, the Kd stood at 19 nM in assay [2]; 15.2 nM in assay [9]; 27.9 nM in assay [10]; 19 nM in [11]; 19 nM in assay [13]. Also, the values for the off-rate (koff) in [3] and in assay [4] were 0.00281 s⁻¹ and 0.00314 s⁻¹, respectively. In addition, the “Fold change in EC50” value in [5] turned out to be 3.2 fold. Besides, the kon stood at 184000 M⁻¹ s⁻¹ in [9] and 113000 M⁻¹ s⁻¹ in assay [10]. In addition, the “increase in their apical concentration relative to control VHH (MDCK-hpIgR monolayers)” value in assay [18] was > 10 fold. For the same molecule, in assay [14], the “Transcytosis (Fold Incr.)” value is 32 fold. Further, the binding result (in assay [15]; in the assay with hpIgR_D2-D3; in assay [19]; with hpIgR_D3; in assay [17]; in [20]) was “no binding (tested: 100 ug/ml (single concentration))” each time. Also, the “For. Trans. (Fold Incr.)” value in assay [16] was determined as 24.2 fold. Moreover, the “Rev. Trans (Fold Incr.)” value in assay [16] was determined as 10.3 fold.

B3: VHH7-linker-mono-Fc protein (Fc fusion)
chain: EVQVVESGGGLVQAGGSLRLACVASRSIGSINVMGWYRQAPGKQRDLVARITGGGSTHYAESVKGRFTISRDNAKNTVYLQMNSLEPEDTAVYYCASMVNPIITAWGTIGVREIPDYDYWGQGTQVTVSSEPKTPKPQPQPQLQPQPNPTTESKSPKSPAPELLGGPSVFLFPPKPKDTLMISRTPEVTCVVVDVSHEDPEVKFNWYVDGVEVHNAKTKPREEQYNSTYRVVSVLTVLHQDWLNGKEYKCKVSNKALPAPIEKTISKAKGQPREPQVYTKPPSREEMTKNQVSLSCLVKGFYPSDIAVEWESNGQPENNYKTTVPVLDSDGSFRLASYLTVDKSRWQQGNVFSCSVMHEALHNHYTQKSLSLSPGK
notes: made in CHO cells; also called VHH7-mono-Fc; hpIgR_198
In the case of B3, the EC50 in [1] was 12.4 nM; in assay [6], 31.1 nM; in [7], 36.4 nM; in assay [8], 36.4 nM; in assay [12], 36.4 nM. Further, the dissociation constant Kd in assay [2], in [11] and in assay [13] was 521 nM throughout. Moreover, in assay [5], the “Fold change in EC50” value turned out to be 2.5 fold. Moreover, the binding result in assay [21] is recorded as “binds”; with hpIgR_D2-D3, “no binding (tested: 100 ug/ml (single concentration))”; in the assay with hpIgR_D3, “no binding (tested: 100 ug/ml (single concentration))”; in assay [22], “no binding (tested: 100 ug/ml (single concentration))”; in assay [17] it was “no binding (tested: 100 ug/ml (single concentration))”; in [20] it was “no binding (tested: 100 ug/ml (single concentration))”. The “Transcytosis (Fold Incr.)” value in assay [14] turned out to be 1.3 fold. Moreover, in assay [16], the “For. Trans. (Fold Incr.)” value came out at 1.9 fold. For the same molecule, the “Rev. Trans (Fold Incr.)” value in [16] worked out at 3.3 fold.
